US20230357857, “NUCLEIC ACID NANOSTRUCTURES WITH TUNABLE FUNCTIONAL STABILITY” (National University of Singapore, published 2023)

B1: miR-223-5p Aptamer + miR-223 specific strand (dsDNA)
DNA 1: ACAAGCTGAGTTCGCCAATGTACAGTATTGGCG
DNA 2: AACTCAGCTTGTCAAATA
B2: miR-1827 Aptamer + miR-1827 specific strand (dsDNA)
DNA 1: AGTAGATTGAATCGGACAATGTACAGTATTGTCCG
DNA 2: ATTCAATCTACTGCCTCA
B3: GAPDH Aptamer + GAPDH specific strand (dsDNA)
DNA 1: TTCTCAAGACGGAATCAATGTACAGTATTGATT
DNA 2: CCGTCTTGAGAAACCTGC
B4: ACTB Aptamer + ACTB specific strand (dsDNA)
DNA 1: ACGCAACTAAGTGACCAATGTACAGTATTGGTC
DNA 2: ACTTAGTTGCGTTACACC
B5: hnRNPA2B1 Aptamer + hnRNPA2B1 specific strand (dsDNA)
DNA 1: TGCCTATCAGTATGACCAATGTACAGTATTGGTCA
DNA 2: TACTGATAGGCAGTCTGG
B6: GAS5 Aptamer + GAS5 specific strand (dsDNA)
DNA 1: TGTCTTCATGTCTAGCCAATGTACAGTATTGGCTA
DNA 2: GACATGAAGACAGTTCCT
B7: PCGEM1 Aptamer + PCGEM1 specific strand (dsDNA)
DNA 1: CCTCAGAAATCTCGGCAATGTACAGTATTGCCG
DNA 2: AGATTTCTGAGGGGAATT
B8: NEAT1 Aptamer + NEAT1 specific strand (dsDNA)
DNA 1: TTAGCGCCAAACTAGCAATGTACAGTATTGCTA
DNA 2: GTTTGGCGCTAAACTCTT

The binders below were run against Taq DNA polymerase (UniProt P19821 P19821:1-832) (assay: inhibition; >80% signal with target; 1.5 mM MgCl2). Settings: tags: Promega; partial duplex plus stabilizer hairpin.
Chain of Taq DNA polymerase (P19821 whole entry, one chain of several): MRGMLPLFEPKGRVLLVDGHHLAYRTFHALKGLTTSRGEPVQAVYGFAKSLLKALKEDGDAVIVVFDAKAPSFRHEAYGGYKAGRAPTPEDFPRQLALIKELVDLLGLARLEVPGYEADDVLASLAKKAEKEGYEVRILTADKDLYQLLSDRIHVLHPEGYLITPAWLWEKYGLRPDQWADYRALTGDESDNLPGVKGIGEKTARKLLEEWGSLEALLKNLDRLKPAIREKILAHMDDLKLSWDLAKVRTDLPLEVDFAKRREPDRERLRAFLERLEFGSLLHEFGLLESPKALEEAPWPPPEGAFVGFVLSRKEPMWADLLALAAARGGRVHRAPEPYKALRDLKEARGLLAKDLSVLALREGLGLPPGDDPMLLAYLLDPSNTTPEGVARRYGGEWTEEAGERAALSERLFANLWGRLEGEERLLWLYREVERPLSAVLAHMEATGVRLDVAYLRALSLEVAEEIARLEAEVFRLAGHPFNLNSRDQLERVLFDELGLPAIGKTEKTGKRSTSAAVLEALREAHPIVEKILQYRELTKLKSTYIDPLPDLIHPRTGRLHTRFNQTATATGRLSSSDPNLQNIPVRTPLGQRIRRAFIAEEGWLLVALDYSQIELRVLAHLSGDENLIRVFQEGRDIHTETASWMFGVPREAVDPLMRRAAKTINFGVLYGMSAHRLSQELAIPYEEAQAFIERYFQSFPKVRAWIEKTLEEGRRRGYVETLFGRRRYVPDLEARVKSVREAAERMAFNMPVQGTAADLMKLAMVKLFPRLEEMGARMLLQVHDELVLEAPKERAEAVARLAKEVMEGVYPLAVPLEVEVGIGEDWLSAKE

activity, < 10 % signal without target:
B1
B2
B3
B4
B5
B6
B7
B8
